Test results: patent EP4803151A2 (Lepu Biopharma Co., Ltd., dated 2026)

How the values were obtained:
[1] = molecular target: T1, human DLL1 his tag fusion protein (Sino Biological, Cat. No. 11635-H08H) (human, UniProt O00548 18-540); assay: ELISA, hDLL1-his coated at 1 ug/mL
T1 construct: Bought protein; also called hDLL1-his; hDLL1 protein; not shown: his tag
T1 sequence (looked up): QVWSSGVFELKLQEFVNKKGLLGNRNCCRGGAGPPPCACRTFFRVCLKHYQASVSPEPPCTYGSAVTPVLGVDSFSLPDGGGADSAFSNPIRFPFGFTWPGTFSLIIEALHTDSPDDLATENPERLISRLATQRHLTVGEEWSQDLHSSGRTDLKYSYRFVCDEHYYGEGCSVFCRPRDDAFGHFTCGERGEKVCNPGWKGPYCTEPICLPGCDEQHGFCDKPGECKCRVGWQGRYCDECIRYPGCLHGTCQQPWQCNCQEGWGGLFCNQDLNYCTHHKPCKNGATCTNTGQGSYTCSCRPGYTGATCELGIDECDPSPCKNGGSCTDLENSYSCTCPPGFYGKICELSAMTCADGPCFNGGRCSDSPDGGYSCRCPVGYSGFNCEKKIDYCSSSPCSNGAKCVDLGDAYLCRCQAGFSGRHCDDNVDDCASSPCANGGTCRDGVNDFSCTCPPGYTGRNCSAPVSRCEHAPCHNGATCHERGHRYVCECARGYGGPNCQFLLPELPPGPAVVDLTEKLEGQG

[2] = molecular target: T2, ECD of human DLL3 protein fused with his tag (Acro Bio, Cat. No. DL3-H52H4) (human, UniProt Q9NYJ7 27-492); assay: ELISA, hDLL3-his coated at 1 ug/mL
T2 construct: range 27-492; Bought protein; also called hDLL3-his; human DLL3-his protein; not shown: his tag
T2 sequence (looked up): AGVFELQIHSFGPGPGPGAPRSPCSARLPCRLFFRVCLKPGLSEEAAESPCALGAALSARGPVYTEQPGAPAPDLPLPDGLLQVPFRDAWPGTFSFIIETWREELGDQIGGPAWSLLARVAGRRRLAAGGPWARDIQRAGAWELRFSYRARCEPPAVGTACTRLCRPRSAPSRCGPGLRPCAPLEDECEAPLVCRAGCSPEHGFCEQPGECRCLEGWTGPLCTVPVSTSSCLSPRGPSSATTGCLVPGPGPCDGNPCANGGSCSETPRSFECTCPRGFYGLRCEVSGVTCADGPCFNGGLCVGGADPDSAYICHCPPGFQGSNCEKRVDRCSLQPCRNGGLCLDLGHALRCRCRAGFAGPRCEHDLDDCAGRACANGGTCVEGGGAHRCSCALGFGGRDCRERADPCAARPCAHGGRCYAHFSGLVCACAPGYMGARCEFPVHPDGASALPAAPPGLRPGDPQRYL

[3] = molecular target: T3, human DLL4 his tag fusion protein (Sino Biological, Cat. No. 10171-H08H) (human, UniProt Q9NR61 27-524); assay: ELISA, hDLL4-his coated at 1 ug/mL
T3 construct: Bought protein; also called hDLL4-his; hDLL4 protein; not shown: his tag
T3 sequence (Q9NR61 27-524 limits assumed): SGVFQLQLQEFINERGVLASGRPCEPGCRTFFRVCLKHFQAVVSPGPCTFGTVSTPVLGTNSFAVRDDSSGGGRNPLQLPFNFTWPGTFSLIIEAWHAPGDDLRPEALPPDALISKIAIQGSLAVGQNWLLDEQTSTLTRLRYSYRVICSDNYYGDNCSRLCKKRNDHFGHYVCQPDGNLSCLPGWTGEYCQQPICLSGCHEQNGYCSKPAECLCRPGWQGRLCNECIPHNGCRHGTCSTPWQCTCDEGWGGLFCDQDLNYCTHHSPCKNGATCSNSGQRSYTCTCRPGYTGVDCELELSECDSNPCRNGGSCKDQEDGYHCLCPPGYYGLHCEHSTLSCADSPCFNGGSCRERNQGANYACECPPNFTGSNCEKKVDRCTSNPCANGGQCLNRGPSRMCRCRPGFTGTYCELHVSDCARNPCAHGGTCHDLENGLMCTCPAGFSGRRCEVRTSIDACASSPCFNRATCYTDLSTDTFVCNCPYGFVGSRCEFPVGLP

[4] = molecular target: T4, mouse DLL3 his tag protein (KACTUS, Cat. No. DLL-MM103) (mouse, UniProt O88516 33-490, limits assumed); assay: ELISA, mDLL3-his coated at 1 ug/mL
T4 construct: Bought protein; also called mDLL3-his; mouse DLL3 protein; not shown: his tag
T4 sequence (looked up): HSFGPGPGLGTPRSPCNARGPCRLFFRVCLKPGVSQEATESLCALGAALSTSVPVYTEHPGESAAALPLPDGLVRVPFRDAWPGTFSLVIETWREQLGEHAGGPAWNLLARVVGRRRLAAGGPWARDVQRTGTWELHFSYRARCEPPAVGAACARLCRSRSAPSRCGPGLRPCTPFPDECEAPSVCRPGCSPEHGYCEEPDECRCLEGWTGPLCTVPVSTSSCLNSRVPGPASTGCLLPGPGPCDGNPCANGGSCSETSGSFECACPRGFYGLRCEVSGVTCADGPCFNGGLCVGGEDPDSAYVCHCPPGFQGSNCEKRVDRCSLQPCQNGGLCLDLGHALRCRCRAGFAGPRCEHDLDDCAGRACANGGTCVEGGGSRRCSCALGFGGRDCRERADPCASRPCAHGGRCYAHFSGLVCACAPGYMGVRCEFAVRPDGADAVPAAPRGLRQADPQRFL

[5] = molecular target: T5, human full length DLL1 expressed on CHO-K1 cells (human, UniProt O00548 18-723); assay: flow cytometry on CHO-K1-hDLL1 cells
T5 construct: whole, on cells; also called CHO-K1-hDLL1
T5 sequence (looked up): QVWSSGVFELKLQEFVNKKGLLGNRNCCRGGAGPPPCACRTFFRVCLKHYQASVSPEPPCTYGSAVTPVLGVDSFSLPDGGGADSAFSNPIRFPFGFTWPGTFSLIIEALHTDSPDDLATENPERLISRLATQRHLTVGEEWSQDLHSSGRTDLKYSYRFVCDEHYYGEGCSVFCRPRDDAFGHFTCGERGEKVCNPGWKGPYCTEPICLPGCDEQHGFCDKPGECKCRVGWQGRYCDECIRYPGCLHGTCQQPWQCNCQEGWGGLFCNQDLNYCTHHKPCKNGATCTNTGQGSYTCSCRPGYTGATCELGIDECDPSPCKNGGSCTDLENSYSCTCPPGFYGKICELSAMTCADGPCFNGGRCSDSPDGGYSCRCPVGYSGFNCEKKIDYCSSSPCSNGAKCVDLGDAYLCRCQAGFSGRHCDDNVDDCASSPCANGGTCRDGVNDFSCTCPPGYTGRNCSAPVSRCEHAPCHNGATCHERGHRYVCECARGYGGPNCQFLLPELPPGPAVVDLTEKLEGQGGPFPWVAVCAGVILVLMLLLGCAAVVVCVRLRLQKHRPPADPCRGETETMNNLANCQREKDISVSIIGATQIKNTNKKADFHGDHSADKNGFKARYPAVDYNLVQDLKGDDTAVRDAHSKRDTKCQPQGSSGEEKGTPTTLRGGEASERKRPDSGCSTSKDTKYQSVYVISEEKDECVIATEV

[6] = molecular target: T6, ECD of human DLL3 over-expressed on HEK293 cells (human, UniProt Q9NYJ7 27-492); assay: flow cytometry on HEK293-hDLL3 cells
T6 construct: extracellular domain; also called HEK293-hDLL3; human DLL3 expressed on HEK293 cells
T6 sequence (looked up): T2 sequence (looked up)

[7] = molecular target: T7, human DLL3 endogenously expressed on SCLC tumor cell lines SHP77 and NCI-H82 (human, UniProt Q9NYJ7 27-618); assay: flow cytometry on SHP77 and NCI-H82 cells
T7 construct: whole, on cells; also called human DLL3 expressed on tumor cells
T7 sequence (looked up): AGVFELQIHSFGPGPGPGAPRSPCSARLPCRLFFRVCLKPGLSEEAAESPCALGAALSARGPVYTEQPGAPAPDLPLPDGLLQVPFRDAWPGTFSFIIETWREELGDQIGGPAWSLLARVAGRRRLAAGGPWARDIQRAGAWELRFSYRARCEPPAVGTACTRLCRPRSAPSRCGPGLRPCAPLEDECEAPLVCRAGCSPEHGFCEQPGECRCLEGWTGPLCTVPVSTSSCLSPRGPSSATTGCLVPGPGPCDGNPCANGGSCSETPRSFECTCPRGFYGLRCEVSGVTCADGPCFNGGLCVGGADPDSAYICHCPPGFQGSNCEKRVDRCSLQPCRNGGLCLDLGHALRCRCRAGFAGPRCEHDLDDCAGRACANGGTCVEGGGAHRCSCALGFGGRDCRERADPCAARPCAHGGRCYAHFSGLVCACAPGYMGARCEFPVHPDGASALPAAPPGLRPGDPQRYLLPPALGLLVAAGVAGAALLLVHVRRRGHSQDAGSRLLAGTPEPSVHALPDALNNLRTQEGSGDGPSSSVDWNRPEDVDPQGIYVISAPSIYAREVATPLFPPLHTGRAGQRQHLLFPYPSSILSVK

- binding result [1]: no binding (tested: up to 100 nM)
- binding result [2]: binds
- binding result [3]: no binding (tested: up to 100 nM)
- binding result [4]: binds
- binding result [6]: binds
- binding result [7]: binds
B1: 36B7F3-hIgG1 chimeric antibody (antibody, V domains shown)
VH: QVQLQQSGPELVKPGASVKISCRASGYTFTDHHLNWVKQRPGQGLEWIGWIFPGSGSDYYNERFKDKATLTVDKSSSTAYMLLSSLTSEDSAVYFCERWDYWGQGTTLTVSS
VL: QIVLTQSPTIMSASPGEKVTMTCSASSSISYMHWYQQKPGTSPKRWIYDTSTLASGVPARFSGGGSGTSYSLTISSMEAEDAATYYCHQRSSYPLTFGAGTKLELKR
- binding result [5]: no binding (tested: highest dose level 100 nM)
